Assay results as given in article doi:10.1101/2025.07.14.664805.

Each substance was assayed against B. mori CS-1 (Centromeric Subunit protein 1) (Bombyx mori) (assay: SEC-MALS).

| stoichiometry N | Substance |
| --- | --- |
| 1 | B. mori CS-2 (Centromeric Subunit protein 2) (natural protein) |
| 1 | B. mori CS-3 (Centromeric Subunit protein 3) (natural protein) |
| 1 | B. mori CS-4 (Centromeric Subunit protein 4) (natural protein) |
